Test results reported in article PMC2373884.

Experiments:
[1] = biological target: cyclooxygenase-2 (COX-2), endogenous in human neutrophils (human (endogenous in neutrophils)) (UniProt P35354)
[2] = biological target: cyclooxygenase-2 (COX-2), endogenous in human neutrophils (human (endogenous in neutrophils)) (UniProt P35354); remark: listed apart in the source

Chain of UniProt P35354 (P35354 18-604): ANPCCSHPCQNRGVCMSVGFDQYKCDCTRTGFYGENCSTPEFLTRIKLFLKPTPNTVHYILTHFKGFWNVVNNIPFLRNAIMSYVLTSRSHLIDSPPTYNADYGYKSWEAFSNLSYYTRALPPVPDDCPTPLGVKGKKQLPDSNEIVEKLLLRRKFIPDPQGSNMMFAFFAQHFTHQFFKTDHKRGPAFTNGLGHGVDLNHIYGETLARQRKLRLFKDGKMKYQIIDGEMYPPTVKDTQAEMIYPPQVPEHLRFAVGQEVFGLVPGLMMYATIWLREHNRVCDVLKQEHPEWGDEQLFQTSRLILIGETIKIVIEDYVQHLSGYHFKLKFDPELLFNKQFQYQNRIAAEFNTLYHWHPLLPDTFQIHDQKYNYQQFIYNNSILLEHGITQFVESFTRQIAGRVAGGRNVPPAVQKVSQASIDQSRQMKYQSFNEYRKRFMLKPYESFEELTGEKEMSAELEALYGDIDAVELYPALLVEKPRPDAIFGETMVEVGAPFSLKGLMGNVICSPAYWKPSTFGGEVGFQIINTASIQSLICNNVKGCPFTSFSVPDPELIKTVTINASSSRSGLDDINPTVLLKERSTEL

PGE2 production (ELISA) from arachidonic acid (10 µM) by purified human recombinant COX-2 (1 U/sample, Cayman) with increasing amounts of hrNuc (fold over basal levels) [1]: 4
PGE2 production (ELISA) from arachidonic acid (10 µM) by lysates of COX-2-expressing neutrophils with increasing quantities of hrNuc [2]: 5 fold
Substance: human recombinant nucleobindin (hrNuc), full length (from UniProt Q02818 27-461) (natural protein)
